Reference: patent publication US20180305421A1 (SHIRE HUMAN GENETIC THERAPIES, published 2018)

B1: BMP-6 (ligand, UniProt P22004 382-513, looked up)
chain: QQSRNRSTQSQDVARVSSASDYNSSELKTACRKHELYVSFQDLGWQDWIIAPKGYAANYCDGECSFPLNAHMNATNHAIVQTLVHLMNPEYVPKPCCAPTKLNAISVLYFDDNSNVILKKYRNMVVRACGCH
B2: activin (ligand, UniProt P08476 311-426, looked up)
chain: GLECDGKVNICCKKQFFVSFKDIGWNDWIIAPSGYHANYCEGECPSHIAGTSGSSLSFHSTVINHYRMRGHSPFANLKSCCVPTKLRPMSMLYYDDGQNIIKKDIQNMIVEECGCS
notes: also called activin A
B3: FS315 (R&D Systems) (other)
chain: GNCWLRQAKNGRCQVLYKTELSKEECCSTGRLSTSWTEEDVNDNTLFKWMIFNGGAPNCIPCKETCENVDCGPGKKCRMNKKNKPRCVCAPDCSNITWKGPVCGLDGKTYRNECALLKARCKEQPELEVQYQGRCKKTCRDVFCPGSSTCVVDQTNNAYCVTCNRICPEPASSEQYLCGNDGVTYSSACHLRKATCLLGRSIGLAYEGKCIKAKSCEDIQCTGGKKCLWDFKVGRGRCSLCDELCPDSKSDEPVCASDNATYASECAMKEAACSSGVLLEVKHSGSCNSISEDTEEEEEDEDQDYSFPISSILEW
B4: BMP-7 (ligand, UniProt P18075 293-431, looked up)
chain: STGSKQRSQNRSKTPKNQEALRMANVAENSSSDQRQACKKHELYVSFRDLGWQDWIIAPEGYAAYYCEGECAFPLNSYMNATNHAIVQTLVHFINPETVPKPCCAPTQLNAISVLYFDDSSNVILKKYRNMVVRACGCH
B7: BMP-4 (ligand, UniProt P12644 293-408, looked up)
chain: SPKHHSQRARKKNKNCRRHSLYVDFSDVGWNDWIVAPPGYQAFYCHGDCPFPLADHLNSTNHAIVQTLVNSVNSSIPKACCVPTELSAISMLYLDEYDKVVLKNYQEMVVEGCGCR
B8: BMP-2 (ligand, UniProt P12643 283-396, looked up)
chain: QAKHKQRKRLKSSCKRHPLYVDFSDVGWNDWIVAPPGYHAFYCHGECPFPLADHLNSTNHAIVQTLVNSVNSKIPKACCVPTELSAISMLYLDENEKVVLKNYQDMVVEGCGCR
B9: sActRIIB-hFc (Fc fusion, UniProt Q13705 25-134, looked up)
chain: ETRECIYYNANWELERTNQSGLERCEGEQDKRLHCYASWRNSSGTIELVKKGCWLDDFNCYDRQECVATEENPQVYFCCCEGNFCNERFTHLPEAGGPEVTYEPPPTAPT
notes: Control protein in the Biacore assay; also called sActRTIB-hFc; sActRIIB-Fc; not shown: human Fc
B10: follistatin-Fc human chimera FS315-hFc (Sino Biological Inc. Catalog Number 10685-H02H) (Fc fusion)
chain: GNCWLRQAKNGRCQVLYKTELSKEECCSTGRLSTSWTEEDVNDNTLFKWMIFNGGAPNCIPCKETCENVDCGPGKKCRMNKKNKPRCVCAPDCSNITWKGPVCGLDGKTYRNECALLKARCKEQPELEVQYQGRCKKTCRDVFCPGSSTCVVDQTNNAYCVTCNRICPEPASSEQYLCGNDGVTYSSACHLRKATCLLGRSIGLAYEGKCIKAKSCEDIQCTGGKKCLWDFKVGRGRCSLCDELCPDSKSDEPVCASDNATYASECAMKEAACSSGVLLEVKHSGSCNSISEDTEEEEEDEDQDYSFPISSILEWALEVLFQGP
notes: Bought fusion protein; also called Sino Biological FS315-hFc; not shown: human Fc of the bought product
B11: BMP-9 (ligand, UniProt Q9UK05 320-429, looked up)
chain: SAGAGSHCQKTSLRVNFEDIGWDSWIIAPKEYEAYECKGGCFFPLADDVTPTKHAIVQTLVHLKFPTKVGKACCVPTKLSPISVLYKDDMGVPTLKYHYEGMSVAECGCR

Columns and labels:
FS315 (R&D Systems) [1] = molecular target: B3; assay: Biacore SPR, 25 C; FS315 immobilized on CM5 chip, ligand as soluble analyte
Text: (§1) Specifically, commercially available follistatins (FS315, manufactured by R&D Systems and follistatin-Fc human chimera FS315-hFc, manufactured by Sino Biological), and FS315-GAG3-mFc fusion proteins were used to assess binding affinity and kinetics to activin, myostatin, and BMPs using Biacore assays. Briefly, FS315 was immobilized onto a CM5 chip, and follistatin-Fc fusion proteins were captured using human or mouse antibody capture kits (GE Healthcare). Post amine-coupling, a concentration series of activin, myostatin, or BMPs (e.g., BMP-2, -4, -6, -7, -9, -10, and GDF-1) was added as soluble analyte at 25° C. sActRTIB-hFc was used as a control. Binding affinities (Kd) and kinetics were determined using standard methods.

[2] = molecular target: B10; assay: Biacore SPR, 25 C; Fc fusion captured with human antibody capture kit, ligand as soluble analyte
Text: as §1

FS315 (R&D Systems) [3] = molecular target: B3; assay: Biacore SPR, 25 C; FS315 immobilized on CM5 chip, ligand as soluble analyte; FS315 (R&D Systems, no Fc) amine-coupled to CM5 chip; activin as soluble analyte; 25 C
Text: as §1

activin [4] = molecular target: B2; assay: cell-based or functional assay
myostatin [5] = molecular target: T1, myostatin (UniProt O14793 267-375); assay: cell-based or functional assay
T1 sequence (looked up): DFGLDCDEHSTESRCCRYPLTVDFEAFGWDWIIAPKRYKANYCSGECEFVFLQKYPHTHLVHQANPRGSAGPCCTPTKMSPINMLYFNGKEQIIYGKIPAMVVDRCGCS

myostatin [6] = molecular target: T1, myostatin; assay: cell-based or functional assay; remark: listed apart in the source
sActRIIB-hFc = molecular target: B9; assay: Biacore SPR, 25 C; Fc fusion captured with human antibody capture kit, ligand as soluble analyte
Text: as §1

FS315 (R&D Systems) [7] = molecular target: B3; assay: Biacore SPR, 25 C; FS315 immobilized on CM5 chip, ligand as soluble analyte; Table 3 cell for this pair: fitted KD, FS315 immobilized on CM5, BMP-10 as analyte, 25 C
Text: as §1

[8] = molecular target: B10; assay: Biacore SPR, 25 C; Fc fusion captured with antibody capture kit, ligand as soluble analyte
Text: as §1

BMP-9 [9] = molecular target: B11; assay: cell-based or functional assay
BMP-7 = molecular target: B4; assay: Biacore SPR, 25 C; Fc fusion captured with human antibody capture kit, ligand as soluble analyte
Text: as §1

activin [10] = molecular target: B2; assay: as above
Text: as §1

BMP-4 = molecular target: B7; assay: as above
Text: as §1

BMP-9 [11] = molecular target: B11; assay: as above
Text: as §1

BMP-6 = molecular target: B1; assay: as above
Text: as §1

BMP-2 = molecular target: B8; assay: Biacore SPR, 25 C; Fc fusion captured with antibody capture kit, ligand as soluble analyte
Text: as §1

myostatin [12] = molecular target: T1, myostatin; assay: Biacore SPR (Table 3)
Text: as §1

Binder: B1
- Kd (FS315 (R&D Systems) [1]): 0.36 nM
- Kd [2]: 0.9 nM

Binder: B2
- Kd (FS315 (R&D Systems) [3]): 0.73 nM
- Kd [2]: 0.19 nM

Binder: B3
- IC50, CAGA-luciferase reporter assay for Smad2/3 signaling (1.2 nM activin) (activin [4]): 0.4 nM
- IC50, CAGA-luciferase reporter assay for Smad2/3 signaling (1.2 nM myostatin) (myostatin [5]): 0.45 nM
- IC50 (read off the curve); CAGA-luciferase reporter in HEK293 cells, myostatin (1.2 nM)-induced Smad2/3 signalling (myostatin [6]): ~0.2 nM

Binder: B4
- Kd (FS315 (R&D Systems) [1]): 38 nM

B5: BMP-10 (ligand, UniProt O95393 317-424, looked up)
chain: NAKGNYCKRTPLYIDFKEIGWDSWIIAPPGYEAYECRGVCNYPLAEHLTPTKHAIIQALVHLKNSQKASKACCVPTKLEPISILYLDKGVVTYKFKYEGMAVSECGCR
- Kd [2]: 150 nM
- Kd (sActRIIB-hFc): 0.01 nM
- Kd (FS315 (R&D Systems) [7]): 100 nM

B6: GDF-11 (ligand, UniProt O95390 299-407, looked up)
chain: NLGLDCDEHSSESRCCRYPLTVDFEAFGWDWIIAPKRYKANYCSGQCEYMFMQKYPHTHLVQQANPRGSAGPCCTPTKMSPINMLYFNDKQQIIYGKIPGMVVDRCGCS
- Kd [2]: 0.82 nM
- Kd (sActRIIB-hFc): 0.34 nM

Binder: B7
- Kd (FS315 (R&D Systems) [1]): 14 nM

Binder: B8
- Kd (FS315 (R&D Systems) [1]): 440 nM
- binding result [8]: no binding

Binder: B9
- IC50 (read off the curve); BRE-luciferase reporter in HEK293 cells, BMP-9-induced Smad1/5/8 signalling (BMP-9 [9]): ~20 nM
- Kd (BMP-7): 1.1 nM
- Kd (activin [10]): 0.07 nM
- Kd (BMP-4): 130 nM
- Kd (BMP-9 [11]): 0.054 nM
- Kd (BMP-6): 0.057 nM
- binding result (BMP-2): no binding

Binder: B10
- fold increase of binding affinity against follistatin (FS315) (myostatin [12]): ≥ 10 fold
- IC50, CAGA-luciferase reporter assay for Smad2/3 signaling (1.2 nM activin) (activin [4]): 2.9 nM
- IC50, CAGA-luciferase reporter assay for Smad2/3 signaling (1.2 nM myostatin) (myostatin [5]): 2.99 nM

Binder: B11
- binding result (FS315 (R&D Systems) [1]): no binding
- binding result [8]: no binding
